Results published in patent publication US20220380471A1.

T1: mouse B7H3-His (mouse) (UniProt Q8VE98)
T1 sequence (looked up): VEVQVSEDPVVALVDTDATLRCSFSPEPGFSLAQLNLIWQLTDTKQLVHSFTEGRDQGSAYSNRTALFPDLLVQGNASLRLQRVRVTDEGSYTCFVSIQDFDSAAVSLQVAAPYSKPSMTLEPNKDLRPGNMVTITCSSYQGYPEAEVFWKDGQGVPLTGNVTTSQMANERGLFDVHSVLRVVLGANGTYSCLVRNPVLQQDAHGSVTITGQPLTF

T2: rat B7H3-His (rat) (UniProt Q7TPB4)
T2 sequence (looked up): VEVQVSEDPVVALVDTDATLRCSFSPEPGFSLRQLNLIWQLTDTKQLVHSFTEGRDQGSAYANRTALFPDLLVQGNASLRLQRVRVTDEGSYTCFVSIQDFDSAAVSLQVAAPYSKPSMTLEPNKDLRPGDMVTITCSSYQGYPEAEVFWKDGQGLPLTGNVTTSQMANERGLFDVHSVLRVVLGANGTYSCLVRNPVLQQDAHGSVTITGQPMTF


What was measured:
mouse B7H3-His (mouse) [1] = biological target: T1, mouse B7H3-His (mouse); assay: ELISA; row Mouse-2 (mB7H3); well 2 of 3
mouse B7H3-His (mouse) [2] = biological target: T1, mouse B7H3-His (mouse); assay: phage ELISA, cross-species
mouse B7H3-His (mouse) [3] = biological target: T1, mouse B7H3-His (mouse); assay: ELISA; row Mouse-2 (mB7H3); well 1 of 3
mouse B7H3-His (mouse) [4] = biological target: T1, mouse B7H3-His (mouse); assay: ELISA; row Mouse-1 (msB7H3); well 1 of 3
mouse B7H3-His (mouse) [5] = biological target: T1, mouse B7H3-His (mouse); assay: ELISA; row Mouse-2 (mB7H3); well 3 of 3
mouse B7H3-His (mouse) [6] = biological target: T1, mouse B7H3-His (mouse); assay: ELISA; row Mouse-1 (msB7H3); well 3 of 3
mouse B7H3-His (mouse) [7] = biological target: T1, mouse B7H3-His (mouse); assay: ELISA; row Mouse-1 (msB7H3); well 2 of 3
rat B7H3-His (rat) [8] = biological target: T2, rat B7H3-His (rat); assay: ELISA; row Rat; well 3 of 3
rat B7H3-His (rat) [9] = biological target: T2, rat B7H3-His (rat); assay: phage ELISA, cross-species
rat B7H3-His (rat) [10] = biological target: T2, rat B7H3-His (rat); assay: ELISA, purified VHH
rat B7H3-His (rat) [11] = biological target: T2, rat B7H3-His (rat); assay: ELISA; row Rat; well 1 of 3
rat B7H3-His (rat) [12] = biological target: T2, rat B7H3-His (rat); assay: ELISA; row Rat; well 2 of 3

ELISA reading (name not given) (mouse B7H3-His (mouse) [1]) | ELISA signal (mouse B7H3-His (mouse) [2]) | ELISA reading (name not given) (mouse B7H3-His (mouse) [3]) | ELISA reading (name not given) (mouse B7H3-His (mouse) [4]) | ELISA reading (name not given) (mouse B7H3-His (mouse) [5]) | ELISA reading (name not given) (mouse B7H3-His (mouse) [6]) | ELISA reading (name not given) (mouse B7H3-His (mouse) [7]) | ELISA reading (name not given) (rat B7H3-His (rat) [8]) | ELISA signal (rat B7H3-His (rat) [9]) | ELISA signal (rat B7H3-His (rat) [10]) | ELISA reading (name not given) (rat B7H3-His (rat) [11]) | ELISA reading (name not given) (rat B7H3-His (rat) [12]) | Binder
0.0771 | 1.71 | 0.0742 | 0.0714 | 0.0764 | 0.0702 | 0.0683 |  |  |  |  |  | RWB12 (VHH) VHH: QVQLVESGGGSVQVGGSLRLSCAASGFTYNSYSVGWFRQAPGKEREGVAAINSGGSSTYYAASVKGRFTISRDNAKNTVYLQMNSLKPEDTAMYYCAARSPSPLTFQTRTLREDSYNYWGQGTQVTVSS
0.0498 | 0.366 | 0.079 | 0.0616 | 0.0468 | 0.0488 | 0.0533 | 0.0685 | 0.797 | 0.158 | 0.0683 | 0.0688 | RWC4 (VHH) VHH: EVQLVESGGGSVQAGGSLRLSCVASEDSTSAMCMGWFRQAPGKEREGVACINPTGEVTWYGDSVKGRFTISRDTVKKIVYLQMNSLKPEDTAMYYCAARVTYGGDWSTDTDYEYWGQGTQVTVSS
